Laboratory results: paper PMC10965115
Read-outs that look alike come from different tables or passages of the source. One block for each molecule: values may come before it.

Assays:
Test in all cases: BLI
[1] = molecular target: IgG1 LALA RUBY v9 #2 (human)
IgG1 mAb (human) [2] = molecular target: IgG1 mAb (human)
IgG1 RUBY v9 #15 (human) [3] = molecular target: IgG1 RUBY v9 #15 (human)
IgG2 mAb (human) [4] = molecular target: IgG2 mAb (human)
IgG2 RUBY v9 #16 (human) [5] = molecular target: IgG2 RUBY v9 #16 (human)
IgG1 LALA mAb (human) = molecular target: IgG1 LALA mAb (human)
[6] = molecular target: IgG1 LALA RUBY #10 (human)
IgG1 mAb (human) [7] = molecular target: IgG1 mAb (human); remark: listed apart in the source
IgG1 RUBY v9 #15 (human) [8] = molecular target: IgG1 RUBY v9 #15 (human); remark: listed apart in the source
IgG2 mAb (human) [9] = molecular target: IgG2 mAb (human); remark: listed apart in the source
IgG2 RUBY v9 #16 (human) [10] = molecular target: IgG2 RUBY v9 #16 (human); remark: listed apart in the source

Molecule: hFcγRI (from UniProt P12314) (receptor)
Kd [1]: 40 nM

Molecule: hFcγRIIIa 176 V (from UniProt P08637) (receptor)
Kd (IgG1 mAb (human) [2]): 50 nM | koff (IgG1 mAb (human) [2]): 0.03 s⁻¹ | kon (IgG1 mAb (human) [2]): 600000 M⁻¹ s⁻¹ | Kd (IgG1 RUBY v9 #15 (human) [3]): 30 nM | koff (IgG1 RUBY v9 #15 (human) [3]): 0.03 s⁻¹ | kon (IgG1 RUBY v9 #15 (human) [3]): 1e+06 M⁻¹ s⁻¹

Molecule: hFcγRIIa (from UniProt P12318) (receptor)
Kd (IgG1 mAb (human) [2]): 300 nM

Molecule: mFcγRIV (from UniProt A0A0B4J1G0) (receptor)
Kd (IgG1 mAb (human) [2]): 50 nM | kon (IgG1 mAb (human) [2]): 400000 M⁻¹ s⁻¹ | Kd (IgG1 RUBY v9 #15 (human) [3]): 40 nM

Molecule: recombinant human FcRn (from UniProt P55899) (receptor)
Kd (IgG2 mAb (human) [4]): 600 nM | koff (IgG2 mAb (human) [4]): 0.1 s⁻¹ | kon (IgG2 mAb (human) [4]): 200000 M⁻¹ s⁻¹ | Kd (IgG2 RUBY v9 #16 (human) [5]): 1000 nM | koff (IgG2 RUBY v9 #16 (human) [5]): 0.2 s⁻¹ | kon (IgG2 RUBY v9 #16 (human) [5]): 200000 M⁻¹ s⁻¹ | Kd (IgG1 mAb (human) [2]): 500 nM | koff (IgG1 mAb (human) [2]): 0.05 s⁻¹ | kon (IgG1 mAb (human) [2]): 100000 M⁻¹ s⁻¹ | Kd (IgG1 LALA mAb (human)): 500 nM | koff (IgG1 LALA mAb (human)): 0.1 s⁻¹ | kon (IgG1 LALA mAb (human)): 200000 M⁻¹ s⁻¹ | Kd (IgG1 RUBY v9 #15 (human) [3]): 600 nM | koff (IgG1 RUBY v9 #15 (human) [3]): 0.08 s⁻¹ | kon (IgG1 RUBY v9 #15 (human) [3]): 100000 M⁻¹ s⁻¹ | Kd [6]: 600 nM | koff [6]: 0.08 s⁻¹ | kon [6]: 100000 M⁻¹ s⁻¹

More lines, now with the values ahead:

Kd [6]: 70 nM | koff [6]: 0.007 s⁻¹ | kon [6]: 100000 M⁻¹ s⁻¹
Molecule: recombinant mouse FcRn (from UniProt Q61559) (receptor)

Kd (IgG1 mAb (human) [7]): 40 nM | koff (IgG1 mAb (human) [7]): 0.02 s⁻¹ | kon (IgG1 mAb (human) [7]): 600000 M⁻¹ s⁻¹ | Kd (IgG1 RUBY v9 #15 (human) [8]): 40 nM | koff (IgG1 RUBY v9 #15 (human) [8]): 0.03 s⁻¹ | kon (IgG1 RUBY v9 #15 (human) [8]): 700000 M⁻¹ s⁻¹
B1: mFcγRI (receptor)
chain: EVVNATKAVITLQPPWVSIFQKENVTLWCEGPHLPGDSSTQWFINGTAVQISTPSYSIPEASFQDSGEYRCQIGSSMPSDPVQLQIHNDWLLLQASRRVLTEGEPLALRCHGWKNKLVYNVVFYRNGKSFQFSSDSEVAILKTNLSHSGIYHCSGTGRHRYTSAGVSITVKELFTTPVLRASVSSPFPEGSLVTLNCETNLLLQRPGLQLHFSFYVGSKILEYRNTSSEYHIARAEREDAGFYWCEVATEDSSVLKRSPELELQVLGPQSSAP

Kd (IgG2 mAb (human) [9]): 10 nM | koff (IgG2 mAb (human) [9]): 0.008 s⁻¹ | kon (IgG2 mAb (human) [9]): 700000 M⁻¹ s⁻¹ | Kd (IgG2 RUBY v9 #16 (human) [10]): 10 nM | koff (IgG2 RUBY v9 #16 (human) [10]): 0.006 s⁻¹ | kon (IgG2 RUBY v9 #16 (human) [10]): 600000 M⁻¹ s⁻¹ | Kd (IgG1 mAb (human) [7]): 20 nM | koff (IgG1 mAb (human) [7]): 0.006 s⁻¹ | kon (IgG1 mAb (human) [7]): 400000 M⁻¹ s⁻¹ | Kd (IgG1 RUBY v9 #15 (human) [8]): 10 nM | koff (IgG1 RUBY v9 #15 (human) [8]): 0.01 s⁻¹ | kon (IgG1 RUBY v9 #15 (human) [8]): 700000 M⁻¹ s⁻¹
B2: mFcγRIII (receptor)
chain: ALPKAVVKLDPPWIQVLKEDMVTLMCEGTHNPGNSSTQWFHNGRSIRSQVQASYTFKATVNDSGEYRCQMEQTRLSDPVDLGVISDWLLLQTPQRVFLEGETITLRCHSWRNKLLNRISFFHNEKSVRYHHYKSNFSIPKANHSHSGDYYCKGSLGSTQHQSKPVTITVQDPATTSSISLVWYHT
